Measured values from patent publication US20260263521A1, “ANTI-CD200R1 ANTIBODY AND USE THEREOF” (AIMED BIO INC., priority 2023, published 2026).

T1: CD200R1 on HH (CRL-2105) cells (Homo sapiens, UniProt Q8TD46)
T1 construct: HH (CRL-2105) cells, which endogenously express CD200R1; host or cells: HH (CRL-2105) cells
T1 sequence (Q8TD46 25-348): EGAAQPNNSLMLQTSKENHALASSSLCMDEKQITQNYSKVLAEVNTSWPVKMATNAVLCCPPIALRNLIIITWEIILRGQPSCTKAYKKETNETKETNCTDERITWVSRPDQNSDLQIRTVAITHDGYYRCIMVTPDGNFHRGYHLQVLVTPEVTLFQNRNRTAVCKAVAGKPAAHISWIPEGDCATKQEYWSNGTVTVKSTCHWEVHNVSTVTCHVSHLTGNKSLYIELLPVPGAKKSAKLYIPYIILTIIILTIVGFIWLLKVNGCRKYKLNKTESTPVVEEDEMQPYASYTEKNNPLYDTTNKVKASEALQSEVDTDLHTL

T2: CD200R1 on Jurkat-CD200R1 cells (Homo sapiens, UniProt Q8TD46)
T2 construct: host or cells: Jurkat
T2 sequence (Q8TD46 25-348): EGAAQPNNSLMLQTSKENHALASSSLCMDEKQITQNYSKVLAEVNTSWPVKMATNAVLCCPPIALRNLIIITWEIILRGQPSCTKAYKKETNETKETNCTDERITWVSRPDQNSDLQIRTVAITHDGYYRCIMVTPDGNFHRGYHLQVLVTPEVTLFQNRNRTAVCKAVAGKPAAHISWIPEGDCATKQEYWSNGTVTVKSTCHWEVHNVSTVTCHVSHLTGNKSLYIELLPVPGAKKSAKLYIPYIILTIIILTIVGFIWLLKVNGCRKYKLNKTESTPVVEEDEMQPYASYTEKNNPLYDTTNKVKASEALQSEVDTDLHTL

T3: human CD200R1 (Homo sapiens, UniProt Q8TD46)
T3 sequence (Q8TD46 25-348): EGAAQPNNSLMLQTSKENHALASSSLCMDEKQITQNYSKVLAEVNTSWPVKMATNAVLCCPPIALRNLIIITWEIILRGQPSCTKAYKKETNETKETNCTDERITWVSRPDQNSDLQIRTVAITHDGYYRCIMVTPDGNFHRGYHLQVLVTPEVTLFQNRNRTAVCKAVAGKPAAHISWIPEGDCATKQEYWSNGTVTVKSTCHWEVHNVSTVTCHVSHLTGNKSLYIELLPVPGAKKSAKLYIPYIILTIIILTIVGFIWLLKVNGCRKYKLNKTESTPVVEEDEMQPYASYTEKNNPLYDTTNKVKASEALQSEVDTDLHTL


Experiments:
[1] = molecular target: T1, CD200R1 on HH (CRL-2105) cells; assay: Cell binding assay (flow cytometry), HH cells; assay type: cell-based; settings: HH cells; 500 nM; IgG1 form
Procedure: (§1) The binding ability of the antibodies identified using unique multifaceted antibody discovery technology was identified in HH (CRL-2105) cells, which endogenously express CD200R1, and Jurkat-CD200R1 cells (Source: DiscoverX), which were generated by intranuclear injection of CD200R1 cDNA.
(§2) HH and Jurkat-CD200R1 cells were maintained in RPMI 1640 medium supplemented with 10% heat-inactivated FBS and 1% Penicillin/Streptomycin (P/S). The cells were washed by centrifugation at 130 g for 5 minutes. The cells were seeded onto 96-well round-bottom plates (SPL, #34296) at a density of 1×10^5 cells/well in Flow cytometry staining buffer (Invitrogen, #00-4222-26) or FACS buffer. The cells were treated with all 16 substances and the positive control LY3454738 (US 2020/0087395, I-4P, at Eli Lilly) a concentration of 500 nM in the IgG1 form. After incubation for 1 hour at 4° C., the cells were treated with Alexa-647 Goat anti-human IgG (H+L) cross-adsorbed secondary antibody (Invitrogen, #A21445) and incubated at 4° C. for an additional 30 minutes. […]
(§3) Cell-binding ability was determined in the same manner as in Example 12. For the six active substances primarily selected in Example 12, the isotype was changed to IgG4 or the LALAPG gene was mutated, and binding activity was determined in the two cell lines mentioned above.
(§4) Binding ability was determined in HH, an endogenous T cell line with high CD200R1 expression, and two additional overexpressing cell lines: U937-CD200R overexpressing cells, generated by intranuclear injection of human CD200R1 CDNA into the monocytic cell line U937 (CRL-1593.2) (Source: UMC Utrecht, the Netherlands) and Jurkat-CD200R overexpressing cells, were also cells engineered using a similar method.
(§5) All cell lines were maintained in RPMI 1640 medium supplemented with 10% heat-inactivated FBS and 1% penicillin/streptomycin (P/S) and cell binding was determined in the same manner as in Example 12. […]
(§6) Specific binding ability was determined using P001009 WT and antibody-optimized mutants, P001009v1, P001009v2, P001009v3, and P001009v4. […]

[2] = molecular target: T2, CD200R1 on Jurkat-CD200R1 cells; assay: Cell binding assay (flow cytometry), Jurkat-CD200R1 cells; assay type: cell-based; settings: Jurkat-CD200R1 cells; 500 nM; IgG1 form
Procedure: as §1, §2, §3, §4, §5, §6

human CD200R1 = molecular target: T3, human CD200R1; assay: ELISA binding to human CD200R1; settings: scFv mutants; antigen binding (ELISA) and cell binding (FACS)
Procedure: 96-well plates were coated with human CD200R1 (R&D systems, 3414-CD) and mouse CD200R1 protein (R&D systems, 2554-CD) at a concentration of 2 μg/mL at 4° C. for 16 hours and then were blocked with 3% skim milk. The result was treated with the antibodies at concentrations of 300 nM, 60 nM, 12 nM, 2.4 nM, 0.48 nM, 0.096 nM, and 0.0192 nM, and reacted at room temperature for 2 hours.
The result was washed with PBST and distilled water, the samples were bound with a goat-derived HRP-conjugated anti-human antibody (Invitrogen, 31482, Goat anti-Human IgG F(ab′)2 Secondary Antibody, HRP) for 1 hour at room temperature, and then washed again with PBST and distilled water. Color was developed with a TMB substrate solution (Thermo Scientific, 34029, 1-Step™ TMB-ELISA Ultra Substrate Solution). The color reaction was stopped with stop solution (Invitrogen, SS04, ELISA Stop Solution). The absorbance was measured at an optical density of 450 nm.

Row | Molecule | cell binding ability [1] | cell binding ability [2] | affinity compared with P001018 clone (human CD200R1)
1 | ch1F1: clone discovered using hybridoma technology (1F1), tested in IgG1 form (antibody, V domains shown) VH: QVQLQQPGAEFVKPGAPVKLSCKASGYTFTSYWMNWVKQRPGRGLEWIGRIDPADSEIHYNQKFKDKATLTVDKSSSTAYIQFSSLTSEDSAVYYCARSGGWLPGFAYWGQGTLVTVSA VL: ENVLTQSPAIMSASPGEKVTMTCSASSSLIYMHWYQQKSSTSPKLWIYDTSKLASGVPGRFSGSGSGNSYSLTINSMEAEDVATYYCFQGSGYPLMYTFGGGTKLEIK | significant binding ability | significant binding ability | –
2 | H3-Y102K: P001018 scFv mutant, SEQ ID NO: 164 (protein) scFv: QVQLVQSGAEVKKPGASVKVSCKASGYTFTSYVMHWVRQAPGQGLEWMGYINPYNDDTNYNEKFKGRVTMTRDTSTSTVYMELSSLRSEDTAVYYCAREDYYGSRWGKWGQGTLVTVSSGGGGSGGGGSGGGGSDIVLTQSPASLAVSPGQRATITCRASKSVSTSGYSYMHWYQQKPGQPPKLLIYLASNLESGVPARFSGSGSGTDFTLTINPVEANDTANYYCQHSRELLTFGQGTKVEIK | – | – | enhanced affinity
3 | L3-R92S: P001018 scFv mutant, SEQ ID NO: 167 (protein) scFv: QVQLVQSGAEVKKPGASVKVSCKASGYTFTSYVMHWVRQAPGQGLEWMGYINPYNDDTNYNEKFKGRVTMTRDTSTSTVYMELSSLRSEDTAVYYCAREDYYGSRWGYWGQGTLVTVSSGGGGSGGGGSGGGGSDIVLTQSPASLAVSPGQRATITCRASKSVSTSGYSYMHWYQQKPGQPPKLLIYLASNLESGVPARFSGSGSGTDFTLTINPVEANDTANYYCQHSSELLTFGQGTKVEIK | – | – | enhanced affinity
4 | L3-R92H: P001018 scFv mutant, SEQ ID NO: 166 (protein) scFv: QVQLVQSGAEVKKPGASVKVSCKASGYTFTSYVMHWVRQAPGQGLEWMGYINPYNDDTNYNEKFKGRVTMTRDTSTSTVYMELSSLRSEDTAVYYCAREDYYGSRWGYWGQGTLVTVSSGGGGSGGGGSGGGGSDIVLTQSPASLAVSPGQRATITCRASKSVSTSGYSYMHWYQQKPGQPPKLLIYLASNLESGVPARFSGSGSGTDFTLTINPVEANDTANYYCQHSHELLTFGQGTKVEIK | – | – | enhanced affinity
5 | L3-L94H: P001018 scFv mutant, SEQ ID NO: 169 (protein) scFv: QVQLVQSGAEVKKPGASVKVSCKASGYTFTSYVMHWVRQAPGQGLEWMGYINPYNDDTNYNEKFKGRVTMTRDTSTSTVYMELSSLRSEDTAVYYCAREDYYGSRWGYWGQGTLVTVSSGGGGSGGGGSGGGGSDIVLTQSPASLAVSPGQRATITCRASKSVSTSGYSYMHWYQQKPGQPPKLLIYLASNLESGVPARFSGSGSGTDFTLTINPVEANDTANYYCQHSREHLTFGQGTKVEIK | – | – | enhanced affinity
6 | H3-Y102T: P001018 scFv mutant, SEQ ID NO: 165 (protein) scFv: QVQLVQSGAEVKKPGASVKVSCKASGYTFTSYVMHWVRQAPGQGLEWMGYINPYNDDTNYNEKFKGRVTMTRDTSTSTVYMELSSLRSEDTAVYYCAREDYYGSRWGTWGQGTLVTVSSGGGGSGGGGSGGGGSDIVLTQSPASLAVSPGQRATITCRASKSVSTSGYSYMHWYQQKPGQPPKLLIYLASNLESGVPARFSGSGSGTDFTLTINPVEANDTANYYCQHSRELLTFGQGTKVEIK | – | – | enhanced affinity
7 | L3-L94S: P001018 scFv mutant, SEQ ID NO: 168 (protein) scFv: QVQLVQSGAEVKKPGASVKVSCKASGYTFTSYVMHWVRQAPGQGLEWMGYINPYNDDTNYNEKFKGRVTMTRDTSTSTVYMELSSLRSEDTAVYYCAREDYYGSRWGYWGQGTLVTVSSGGGGSGGGGSGGGGSDIVLTQSPASLAVSPGQRATITCRASKSVSTSGYSYMHWYQQKPGQPPKLLIYLASNLESGVPARFSGSGSGTDFTLTINPVEANDTANYYCQHSRESLTFGQGTKVEIK | – | – | enhanced affinity
8 | L3-T96R: P001018 scFv mutant, SEQ ID NO: 171 (protein) scFv: QVQLVQSGAEVKKPGASVKVSCKASGYTFTSYVMHWVRQAPGQGLEWMGYINPYNDDTNYNEKFKGRVTMTRDTSTSTVYMELSSLRSEDTAVYYCAREDYYGSRWGYWGQGTLVTVSSGGGGSGGGGSGGGGSDIVLTQSPASLAVSPGQRATITCRASKSVSTSGYSYMHWYQQKPGQPPKLLIYLASNLESGVPARFSGSGSGTDFTLTINPVEANDTANYYCQHSRELLRFGQGTKVEIK | – | – | enhanced affinity
9 | L3-L95D: P001018 scFv mutant, SEQ ID NO: 170 (protein) scFv: QVQLVQSGAEVKKPGASVKVSCKASGYTFTSYVMHWVRQAPGQGLEWMGYINPYNDDTNYNEKFKGRVTMTRDTSTSTVYMELSSLRSEDTAVYYCAREDYYGSRWGYWGQGTLVTVSSGGGGSGGGGSGGGGSDIVLTQSPASLAVSPGQRATITCRASKSVSTSGYSYMHWYQQKPGQPPKLLIYLASNLESGVPARFSGSGSGTDFTLTINPVEANDTANYYCQHSRELDTFGQGTKVEIK | – | – | enhanced affinity
